Assays:
[1] = biological target: the molecule itself; experiment: cell surface cross-linking with DSP, immunoprecipitation, SDS-PAGE
crystal structure = biological target: the molecule itself; experiment: crystal structure

B1: EphB2 on PC-3 cells (receptor, human, UniProt P29323 19-1055, looked up)
chain: VEETLMDSTTATAELGWMVHPPSGWEEVSGYDENMNTIRTYQVCNVFESSQNNWLRTKFIRRRGAHRIHVEMKFSVRDCSSIPSVPGSCKETFNLYYYEADFDSATKTFPNWMENPWVKVDTIAADESFSQVDLGGRVMKINTEVRSFGPVSRSGFYLAFQDYGGCMSLIAVRVFYRKCPRIIQNGAIFQETLSGAESTSLVAARGSCIANAEEVDVPIKLYCNGDGEWLVPIGRCMCKAGFEAVENGTVCRGCPSGTFKANQGDEACTHCPINSRTTSEGATNCVCRNGYYRADLDPLDMPCTTIPSAPQAVISSVNETSLMLEWTPPRDSGGREDLVYNIICKSCGSGRGACTRCGDNVQYAPRQLGLTEPRIYISDLLAHTQYTFEIQAVNGVTDQSPFSPQFASVNITTNQAAPSAVSIMHQVSRTVDSITLSWSQPDQPNGVILDYELQYYEKELSEYNATAIKSPTNTVTVQGLKAGAIYVFQVRARTVAGYGRYSGKMYFQTMTEAEYQTSIQEKLPLIIGSSAAGLVFLIAVVVIAIVCNRRGFERADSEYTDKLQHYTSGHMTPGMKIYIDPFTYEDPNEAVREFAKEIDISCVKIEQVIGAGEFGEVCSGHLKLPGKREIFVAIKTLKSGYTEKQRRDFLSEASIMGQFDHPNVIHLEGVVTKSTPVMIITEFMENGSLDSFLRQNDGQFTVIQLVGMLRGIAAGMKYLADMNYVHRDLAARNILVNSNLVCKVSDFGLSRFLEDDTSDPTYTSALGGKIPIRWTAPEAIQYRKFTSASDVWSYGIVMWEVMSYGERPYWDMTNQDVINAIEQDYRLPPPMDCPSALHQLMLDCWQKDRNHRPKFGQIVNTLDKMIRNPNSLKAMAPLSSGINLPLLDRTIPDYTSFNTVDEWLEAIKMGQYKESFANAGFTSFDVVSQMMMEDILRVGVTLAGHQKKILNSIQVMRAQMNQIQSVEGQPLARRPRATGRTKRCQPRDVTKKTCNSNDGKKKGMGKKKTDPGRGREIQGIFFKEDSHKESNDCSCGG
notes: whole, on cells
binding result [1]: no binding

B2: EphA2 ligand-binding domain (receptor)
chain: EVVLLDFAAAGGELGWLTHPYGKGWDLMQNIMNDMPIYMYSVCNVMSGDQDNWLRTNWVYRGEAERIFIELKFTVRDCNSFPGGASSCKETFNLYYAESDLDYGTNFQKRLFTKIDTIAPDEITVSSDFEARHVKLNVEERSVGPLTRKGFYLAFQDIGACVALLSVRVYYKKC
notes: The crystallised domain; It forms dimers in the crystal; also called EphA2 LBD; EphA2-LBD
binding result (crystal structure): binds
